Key:
Experiment in all cases: affinity capture from mixture of 54 pTyr peptides, PRM-MS
[1] = molecular target: JAK1 (pTyr1034/1035) peptide EpYpYTVK
[2] = molecular target: EPHB2 (pTyr780) peptide …pYTSALGGK
[3] = molecular target: TXK (pTyr420) peptide YVLDDEpYVSSFGAK
[4] = molecular target: JAK3 (pTyr980/981) peptide DpYpYVVR
[5] = molecular target: EPHA6 (pTyr830) peptide …pYTTTGGK
[6] = molecular target: TYK2 (pTyr1054/1055) peptide AVPEGHEpYpYR
[7] = molecular target: MET (pTyr1234/1235) peptide EpYpYSVHNK
[8] = molecular target: ERBB3 (pTyr866) peptide QLLpYSEAK
[9] = molecular target: JAK2 (pTyr221) peptide IQDpYHILTR
[10] = molecular target: BTK (pTyr551) peptide YVLDDEpYTSSVGSK
[11] = molecular target: INSRR (pTyr1145/1146) peptide DVYETDpYpYR
[12] = molecular target: TEC (pTyr519) peptide YVLDDQpYTSSSGAK
[13] = molecular target: DDR2 (pTyr740/741) peptide NLYSGDpYpYR
[14] = molecular target: RON (pTyr1238/1239) peptide EpYpYSVQQHR
[15] = molecular target: ROR1 (pTyr645/646) peptide EIYSADpYpYR
[16] = molecular target: NTRK1 (pTyr680/681) peptide DIYSTDpYpYR
[17] = molecular target: EPHA1 (pTyr781) peptide LLDDFDGTpYETQGGK
[18] = molecular target: LMTK2 (pTyr295) peptide EDpYIETDDK
[19] = molecular target: EPHA8 (pTyr793) peptide …pYTTTGGK
[20] = molecular target: EPHA2 (pTyr772) peptide …pYTTSGGK
[21] = molecular target: DDR1 (pTyr796/797) peptide NLYAGDpYpYR
[22] = molecular target: FGFR1 (pTyr653/654) peptide DIHHIDpYpYK
[23] = molecular target: PTK7 (pTyr960/961) peptide DVYNSEpYpYHFR
[24] = molecular target: EPHB3 (pTyr792) peptide …pYTSSLGGK
[25] = molecular target: FGFR3 (pTyr647/648) peptide DVHNLDpYpYK
[26] = molecular target: NTRK2 (pTyr706/707) peptide DVYSTDpYpYR
[27] = molecular target: ROR2 (pTyr645/646) peptide EVYAADpYpYK
[28] = molecular target: LMTK3 (pTyr296/297) peptide EDpYpYLTPER
[29] = molecular target: ERBB2 (pTyr877) peptide LLDIDETEpYHADGGK
[30] = molecular target: FGFR2 (pTyr656/657) peptide DINNIDpYpYK
[31] = molecular target: FGFR4 (pTyr642/643) peptide GVHHIDpYpYK
[32] = molecular target: BLK (pTyr389) peptide IIDSEpYTAQEGAK
[33] = molecular target: MERTK (pTyr753/754) peptide IYSGDpYpYR
[34] = molecular target: SRC (pTyr419) peptide LIEDNEpYTAR
[35] = molecular target: KIT (pTyr823) peptide NDSNpYVVK
[36] = molecular target: FER (pTyr714) peptide QEDGGVpYSSSGLK
[37] = molecular target: RET (pTyr905) peptide DVYEEDSpYVK
[38] = molecular target: FES (pTyr713) peptide EEADGVpYAASGGLR
[39] = molecular target: VGFR1 (pTyr1053) peptide NPDpYVR
[40] = molecular target: VGFR2 (pTyr1059) peptide DPDpYVR
[41] = molecular target: PGFRB (pTyr857) peptide DSNpYISK
[42] = molecular target: EPHB1 (pTyr778) peptide …pYTSSLGGK
[43] = molecular target: FRK (pTyr387) peptide VDNEDIpYESR
[44] = molecular target: MUSK (pTyr755/756) peptide NIYSADpYpYK
[45] = molecular target: EPHA3 (pTyr779) peptide …pYTTR
[46] = molecular target: EPHB4 (pTyr774) peptide …pYTSSLGGK
[47] = molecular target: HCK (pTyr411) peptide VIEDNEpYTAR
[48] = molecular target: TIE1 (pTyr1007) peptide GEEVpYVK
[49] = molecular target: TIE2 (pTyr992) peptide GQEVpYVK
[50] = molecular target: GSK3 (pTyr279/216) peptide GEPNVSpYICSR
[51] = molecular target: ITK (pTyr512) peptide FVLDDQpYTSSTGTK
[52] = molecular target: BMX (pTyr566) peptide YVLDDQpYVSSVGTK
[53] = molecular target: SRMS (pTyr380) peptide DDIpYSPSSSSK

“DM human Src SH2 Superbinder expressed with His6 and GST tags (designed binder)” gave a PRM signal peak area [1] of 46200, a PRM signal peak area [2] of 98000 and a PRM signal peak area [3] of 46100. For the same substance, the PRM signal peak area [4] was 10500, the PRM signal peak area [5] was 51100 and the PRM signal peak area [6] was 9680. It also gave a PRM signal peak area [7] of 70800, a PRM signal peak area [8] of 152000 and a PRM signal peak area [9] of 39200. It also gave a PRM signal peak area [10] of 18200, a PRM signal peak area [11] of 7790 and a PRM signal peak area [12] of 4820. It also gave a PRM signal peak area [13] of 16200, a PRM signal peak area [14] of 17400 and a PRM signal peak area [15] of 27700. The PRM signal peak area [16] was 30200, the PRM signal peak area [17] was 12300 and the PRM signal peak area [18] was 1120. For the same substance, the PRM signal peak area [19] was 57100, the PRM signal peak area [20] was 4860 and the PRM signal peak area [21] was 43200. It also gave a PRM signal peak area [22] of 29000, a PRM signal peak area [23] of 4840 and a PRM signal peak area [24] of 14700. For the same substance, the PRM signal peak area [25] was 64600, the PRM signal peak area [26] was 22800 and the PRM signal peak area [27] was 60500. It also gave a PRM signal peak area [28] of 78600, a PRM signal peak area [29] of 4640 and a PRM signal peak area [30] of 39500. The PRM signal peak area [31] was 30000.

“TrM human Src SH2 Superbinder expressed with His6 and GST tags (designed binder)” was tested, and the PRM signal peak area [1] was 110000, the PRM signal peak area [2] was 215000 and the PRM signal peak area [3] was 272000. For the same substance, the PRM signal peak area [32] was 156000, the PRM signal peak area [33] was 26500 and the PRM signal peak area [4] was 19700. The PRM signal peak area [34] was 99500, the PRM signal peak area [35] was 235000 and the PRM signal peak area [5] was 288000. For the same substance, the PRM signal peak area [36] was 27400, the PRM signal peak area [6] was 53500 and the PRM signal peak area [37] was 883000. For the same substance, the PRM signal peak area [38] was 25100, the PRM signal peak area [39] was 158000 and the PRM signal peak area [7] was 111000. It also gave a PRM signal peak area [40] of 197000, a PRM signal peak area [8] of 164000 and a PRM signal peak area [41] of 398000. For the same substance, the PRM signal peak area [9] was 85500, the PRM signal peak area [10] was 1.31e+06 and the PRM signal peak area [11] was 20800. The PRM signal peak area [12] was 781000, the PRM signal peak area [13] was 185000 and the PRM signal peak area [42] was 206000. It also gave a PRM signal peak area [14] of 44300, a PRM signal peak area [43] of 291000 and a PRM signal peak area [15] of 177000. For the same substance, the PRM signal peak area [16] was 103000, the PRM signal peak area [17] was 188000 and the PRM signal peak area [18] was 20900. It also gave a PRM signal peak area [19] of 585000, a PRM signal peak area [20] of 347000 and a PRM signal peak area [21] of 338000. For the same substance, the PRM signal peak area [44] was 178000, the PRM signal peak area [22] was 51200 and the PRM signal peak area [23] was 8860. The PRM signal peak area [45] was 394000, the PRM signal peak area [46] was 134000 and the PRM signal peak area [24] was 260000. It also gave a PRM signal peak area [47] of 384000, a PRM signal peak area [25] of 258000 and a PRM signal peak area [26] of 115000. For the same substance, the PRM signal peak area [48] was 409000, the PRM signal peak area [49] was 210000 and the PRM signal peak area [27] was 334000. It also gave a PRM signal peak area [50] of 48300, a PRM signal peak area [51] of 403000 and a PRM signal peak area [28] of 376000. The PRM signal peak area [29] was 42700, the PRM signal peak area [30] was 87100 and the PRM signal peak area [52] was 151000. The PRM signal peak area [31] was 36100 and the PRM signal peak area [53] was 479000.

“wild-type (wt) human Src SH2 domain expressed with His6 and GST tags” showed a PRM signal peak area [1] of 58300, a PRM signal peak area [2] of 10800 and a PRM signal peak area [3] of 1520. For the same substance, the PRM signal peak area [4] was 23300, the PRM signal peak area [5] was 2740 and the PRM signal peak area [6] was 11600. For the same substance, the PRM signal peak area [7] was 26800, the PRM signal peak area [8] was 41900 and the PRM signal peak area [10] was 4210. The PRM signal peak area [13] was 15300, the PRM signal peak area [14] was 5430 and the PRM signal peak area [15] was 32400. For the same substance, the PRM signal peak area [16] was 21700, the PRM signal peak area [21] was 47700 and the PRM signal peak area [44] was 47600. The PRM signal peak area [22] was 28500, the PRM signal peak area [25] was 104000 and the PRM signal peak area [26] was 39600. The PRM signal peak area [27] was 85900, the PRM signal peak area [28] was 29900 and the PRM signal peak area [30] was 51600. It also gave a PRM signal peak area [31] of 29800.

— patent US20200031885A1
